Laboratory results reported in patent publication US20050182242A1, “Global analysis of protein activities using proteome chips” (priority 2001, published 2005).

B1: DTR1: yeast GST-HisX6 fusion protein on proteome chip (protein, UniProt P38125 1-572, looked up)
Dityrosine transporter 1: MGSEPFQKKNLGLQINSQESGTTRSTFHSLEDLGDDVINESWDQVNQKRANIDHDVFHEHPDSSPSLSAQKAKTKEEEVAVKSSNSQSRDPSPDTQAHIPYTYFSKDQRLIIFGIIIFIGFLGPMSGNIYIPALPLLQREYDVSATTINATVSVFMAVFSVGPLFWGALADFGGRKFLYMVSLSLMLIVNILLAAVPVNIAALFVLRIFQAFASSSVISLGAGTVTDVVPPKHRGKAIAYFMMGPNMGPIIAPIVAGLILMKGNYWRWLFGFTSIMTGIALILVTALLPETLRCIVGNGDPKWGDKKDERENNESPFFEGNKISHRRLFPDIGIRKPVNNDAFFQENFPKPPKAGLTLYWKMIKCPPIIITSVSTALLFSSYYAFSVTFSYYLEHDYRFTMLEIGAAYVCPGVAMLLGSQSGGHLSDYLRSRWIKSHPKKKFPAEFRLLLNLIGILLTICGTIGYGWAIFFHYHFVVLLVFSALTAFGMTWCSNTSMTYLTELFPKRAAGTVAVSSFFRNVGAAISSAIILQLCNAMGIGWCFTGLGLCSSISLIGILYLLIFQRKYTAKEF
modifications: GST-His6 tag
notes: yeast GST-HisX6 fusion protein on proteome chip
B2: HIS7: yeast GST-HisX6 fusion protein on proteome chip (protein, UniProt P33734 1-552, looked up)
Imidazole glycerol phosphate …: MPVVHVIDVESGNLQSLTNAIEHLGYEVQLVKSPKDFNISGTSRLILPGVGNYGHFVDNLFNRGFEKPIREYIESGKPIMGICVGLQALFAGSVESPKSTGLNYIDFKLSRFDDSEKPVPEIGWNSCIPSENLFFGLDPYKRYYFVHSFAAILNSEKKKNLENDGWKIAKAKYGSEEFIAAVNKNNIFATQFHPEKSGKAGLNVIENFLKQQSPPIPNYSAEEKELLMNDYSNYGLTRRIIACLDVRTNDQGDLVVTKGDQYDVREKSDGKGVRNLGKPVQLAQKYYQQGADEVTFLNITSFRDCPLKDTPMLEVLKQAAKTVFVPLTVGGGIKDIVDVDGTKIPALEVASLYFRSGADKVSIGTDAVYAAEKYYELGNRGDGTSPIETISKAYGAQAVVISVDPKRVYVNSQADTKNKVFETEYPGPNGEKYCWYQCTIKGGRESRDLGVWELTRACEALGAGEILLNCIDKDGSNSGYDLELIEHVKDAVKIPVIASSGAGVPEHFEEAFLKTRADACLGAGMFHRGEFTVNDVKEYLLEHGLKVRMDEE
modifications: GST-His6 fusion tag
notes: as for B1
B3: ARO4: yeast GST-HisX6 fusion protein on proteome chip (protein, UniProt P32449 2-370, looked up)
Phospho-2-dehydro-3-deoxyhepto …: SESPMFAANGMPKVNQGAEEDVRILGYDPLASPALLQVQIPATPTSLETAKRGRREAIDIITGKDDRVLVIVGPCSIHDLEAAQEYALRLKKLSDELKGDLSIIMRAYLEKPRTTVGWKGLINDPDVNNTFNINKGLQSARQLFVNLTNIGLPIGSEMLDTISPQYLADLVSFGAIGARTTESQLHRELASGLSFPVGFKNGTDGTLNVAVDACQAAAHSHHFMGVTKHGVAAITTTKGNEHCFVILRGGKKGTNYDAKSVAEAKAQLPAGSNGLMIDYSHGNSNKDFRNQPKVNDVVCEQIANGENAITGVMIESNINEGNQGIPAEGKAGLKYGVSITDACIGWETTEDVLRKLAAAVRQRREVNKK
modifications: GST-His6 fusion tag
notes: as for B1
B4: ERV1: yeast GST-HisX6 fusion protein on proteome chip (protein, UniProt P27882 1-189, looked up)
Mitochondrial FAD-linked …: MKAIDKMTDNPPQEGLSGRKIIYDEDGKPCRSCNTLLDFQYVTGKISNGLKNLSSNGKLAGTGALTGEASELMPGSRTYRKVDPPDVEQLGRSSWTLLHSVAASYPAQPTDQQKGEMKQFLNIFSHIYPCNWCAKDFEKYIRENAPQVESREELGRWMCEAHNKVNKKLRKPKFDCNFWEKRWKDGWDE
modifications: GST-His6 tag
notes: as for B1
B5: ARG1: yeast GST-HisX6 fusion protein on proteome chip (protein, UniProt P22768 1-420, looked up)
Argininosuccinate synthase: MSKGKVCLAYSGGLDTSVILAWLLDQGYEVVAFMANVGQEEDFDAAKEKALKIGACKFVCVDCREDFVKDILFPAVQVNAVYEDVYLLGTSLARPVIAKAQIDVAKQEGCFAVSHGCTGKGNDQIRFELSFYALKPDVKCITPWRMPEFFERFAGRKDLLDYAAQKGIPVAQTKAKPWSTDENQAHISYEAGILEDPDTTPPKDMWKLIVDPMDAPDQPQDLTIDFERGLPVKLTYTDNKTSKEVSVTKPLDVFLAASNLARANGVGRIDIVEDRYINLKSRGCYEQAPLTVLRKAHVDLEGLTLDKEVRQLRDSFVTPNYSRLIYNGSYFTPECEYIRSMIQPSQNSVNGTVRVRLYKGNVIILGRSTKTEKLYDPTESSMDELTGFLPTDTTGFIAIQAIRIKKYGESKKTKGEELTL
modifications: GST-His6 tag
notes: as for B1
B6: PAU5: yeast GST-HisX6 fusion protein on proteome chip (protein, UniProt P43575 1-122, looked up)
Seripauperin-5: MVKLTSIAAGVAAIAAGASAAATTTLSQSDERVNLVELGVYVSDIRAHLAEYYSFQAAHPTETYPVEIAEAVFNYGDFTTMLTGIPADQVTRVITGVPWYSSRLKPAISSALSADGIYTIAN
modifications: GST-His6 fusion tag
notes: as for B1

How the values were obtained:
Conditions in all cases: liposome binding signal on yeast proteome chip, Cy3-streptavidin detection
[1] = test system: phosphatidylcholine (PC) liposomes; assay: Yeast proteome chip probed with PC liposomes
Summary of the method: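 Binding detected by fluorescent streptavidin (Cy3 or Cy5, >30 min in the dark at RT) recognizing biotin-DHPE (1% w/w) in PC liposomes, which carried 5% (w/w) of the named phosphoinositide unless PC-only. Liposomes, made by sonication in TBS, were applied to blocked chips for 1 h at RT, then washed in PBS.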

PI(3,4)P2 liposomes = assay: Yeast proteome chip probed with PI(3,4)P2 liposomes
PI(4,5)P2 liposomes = assay: Yeast proteome chip probed with PI(4,5)P2 liposomes
PI(3,4,5)P3 liposomes = assay: Yeast proteome chip probed with PI(3,4,5)P3 liposomes
PI(3)P liposomes = assay: Yeast proteome chip probed with PI(3)P liposomes
Text: To identify PI-binding proteins in yeast, liposomes were used as probes because the liposome provides the most relevant physiological condition to assay the interactors. Six types of liposomes were used. Each contains phosphatidylcholine (“PC”) with 1% (w/w) N-(biotinoyl)-1,2-dihexadecanoyl-sn-glycero-3-phosphoethanolamine, triethylammonium salt (biotin DHPE). The biotinylated lipid serves as a label that can be detected by Cy3-streptavidin (21). In addition to PC, the five other liposomes contain either 5% (w/w) PI(3)P, PI(4)P, PI(3,4)P2, PI(4,5)P2, or PI(3,4,5)P3 (FIG. 3A).
The protein-liposome interaction was assayed as follows. Appropriate amounts of each lipid in chloroform were mixed and dried under nitrogen. The lipid mixture was resuspended in TBS buffer by vortexing. The liposomes were created by sonication. Blocked proteome chips were washed three to five times in PBS buffer, and the extra liquid on the glass surface was removed by tapping the slides vertically on a KIMWIPE™. 200 μl of liposome solution was added to the proteome chip and immediately covered by a hydrophobic plastic cover slip (GRACE BIO-LAB™, USA). After trapped air bubbles were removed, the chip was incubated in a humidity chamber at RT for one hour. To remove the cover slip, the chip was immersed into large volume of PBS buffer (50 ml), so that the slip would float away. The chip was then moved to a second PBS bath (>50 ml) and washed 3×5 min with shaking at RT. After removing extra liquid on the surface of the chip, about 100 μl of Cy3 or Cy5 conjugated streptavidin (PIERCE™, USA; 1:2000 to 1:4000 dilution) was added to the surface and covered by a hydrophobic plastic cover slip (GRACE BIO-LABS™, USA). The chip was incubated for greater than 30 min in the dark at RT. The chip was then washed as described above. To completely remove the liquid on the chip, the chip was spun to dryness at 1500-2000 rpm for 5-10 min at RT.
• 1. S. Fields, Y. Kohara, D. J. Lockhart, Proc. Natl. Acad. Sci. 96, 8825 (1999); A. Goffeau et al., Science 274, 563 (1996). • 2 P. Ross-Macdonald et al., Nature 402, 413 (1999); J. L., DeRisi, V. R. Iyer, P. O. Brown, Science 278, 680 (1997); E. A. Winzeler et al., Science 285, 901 (1999). P. Uetz et al., Nature 403, 623 (2000); T. Ito et al., Proc. Natl. Acad. Sci. USA. 97, 1143 (2000) • 3 H. Zhu, M. Snyder, Curr. Opin. Chem. Biol. 5, 40 (2001). • 4 M. R. Martzen et al., Science 286, 1153 (1999). • 5 H. Zhu et al., Nat. Genet. 26, 283 (2000). • 6 G. MacBeath, S. L. Schreiber, Science 289, 1760 (2000). • 7 A. Caveman, J. Cell Sci. 113, 3543 (2000). • 8 P. Arenkov et al., Anal. Biochem 278, 123 (2000). • 9 D. A. Mitchell, T. K. Marshall, R. J. Deschenes, Yeast 9, 715 (1993). The expression vector pEGH was created by inserting an RGS-HisX6 epitope tag between the GST gene and the polycloning site of pEG(KG). The yeast ORFs were cloned using the strategy described previously (5), except every step was done in a 96-well format. Plasmid DNAs confirmed by DNA sequencing were reintroduced into both yeast (Y258) and E. coli (DH5a). […] 0.1 mM calcium was present in buffers in all subsequent steps. The chip was washed three times with PBS at RT. Cy3-conjugated streptavidin (Jackson IR, USA) (1:5000 dilution) was added to the chip and incubated for 30 min at RT. After extensive washing, the chip was spun dry and scanned using a microarray scanner; the data was subsequently acquired with the GENEPIX™ array densitometry software (Axon, USA). • 12 S. S. Hook, A. R. Means, Annu. Rev. Pharmacol. Toxicol.41, 471 (2001). • 13 M. S. Cyert, R. Kunisawa, D. Kaim, J. Thorner, Proc. Natl. Acad. Sci. USA 88, 7376 (1991). • 14 D. A. Stirling, K. A. Welch, M. J. Stark, EMBO J. 13, 4329 (1994). • 15 F. Bohl, Kruse, EMBO J. 19, 5514 (2000); E. Bertrand et al., Mol. Cell 2, 437 (1998). • 16 D. C. Winter, E. Y. Choe, R. Li, Proc. Nat. Acad Sci. USA 96, 7288 (1999). • 17 C.

PI(4)P liposomes = assay: Yeast proteome chip probed with PI(4)P liposomes

Row | Molecule | PC [1] | PI(3, 4)P2 (PI(3,4)P2 liposomes) | PI(4, 5)P2 (PI(4,5)P2 liposomes) | PI(3, 4, 5)P3 (PI(3,4,5)P3 liposomes) | PI(3)P (PI(3)P liposomes) | PI(4)P (PI(4)P liposomes)
1 | B1 | 24.07 | 2.83 | 3.05 | 13.72 | 23.00 | −4.79
2 | B2 | 193.11 |  | 18.73 | 78.07 | 20.00 | 226.45
3 | B3 | 28.17 | 34.53 | 20.47 | 29.25 | 87.50 | 42.24
4 | B4 |  |  | 18.94 | 1.35 | 15.75 | −3.27
5 | B5 | 23.77 | 1.73 | 3.48 | −6.08 | 213.00 | −6.31
6 | B6 | 22.30 | −5.02 | −1.31 |  | −3.00 | 31.35
